Test results reported in PMC5667929, “Combinatorial action of Grainyhead, Extradenticle and Notch in regulating Hox mediated apoptosis in Drosophila larval CNS” (PLoS Genetics, 2017).

Molecular target: T1, His tagged Grh (551-1333 aa) (Drosophila, UniProt P13002 551-1333)
T1 construct: Grainyhead (Grh), Drosophila transcription factor, residues 551-1333; also called His-Grh; Grainyhead; source: bacterial culture (induced two hours with 0.5mM IPTG at 18°C), in lysate for the pull-down
Assay: native gel or EMSA; proteins (100 or 200 ng) mixed with DNA oligos of motifs from the 1Kb F3B3 enhancer; complexes seen on DNA only; 20 ul, room temperature, 30 minutes; binding buffer with Tris pH 7.5, KCl, MgCl2, EDTA, DTT, BSA, glycerol, polydIdC
Settings: both partners purified

T1 sequence (P13002 551-1333): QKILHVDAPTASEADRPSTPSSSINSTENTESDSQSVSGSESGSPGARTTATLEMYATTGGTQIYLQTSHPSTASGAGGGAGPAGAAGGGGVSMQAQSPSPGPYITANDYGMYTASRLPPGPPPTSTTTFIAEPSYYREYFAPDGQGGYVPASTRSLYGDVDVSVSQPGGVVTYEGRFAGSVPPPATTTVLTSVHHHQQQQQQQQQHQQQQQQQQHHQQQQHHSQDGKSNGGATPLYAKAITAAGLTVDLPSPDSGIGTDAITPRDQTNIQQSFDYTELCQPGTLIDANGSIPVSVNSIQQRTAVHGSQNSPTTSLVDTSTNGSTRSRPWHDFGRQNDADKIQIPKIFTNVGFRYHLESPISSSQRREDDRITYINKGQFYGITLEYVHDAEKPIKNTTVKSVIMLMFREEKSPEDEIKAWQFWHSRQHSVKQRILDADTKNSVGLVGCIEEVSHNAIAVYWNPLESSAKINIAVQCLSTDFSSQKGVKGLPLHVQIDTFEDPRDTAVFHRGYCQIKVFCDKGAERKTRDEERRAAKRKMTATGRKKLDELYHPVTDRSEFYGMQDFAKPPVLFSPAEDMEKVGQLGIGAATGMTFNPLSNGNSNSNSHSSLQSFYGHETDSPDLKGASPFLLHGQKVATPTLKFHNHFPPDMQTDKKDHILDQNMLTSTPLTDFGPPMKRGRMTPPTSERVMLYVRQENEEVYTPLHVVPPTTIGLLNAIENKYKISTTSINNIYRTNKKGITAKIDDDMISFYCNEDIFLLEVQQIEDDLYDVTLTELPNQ

B1: 6X His-tagged AbdA (residues 261-590) (domain or fragment)
chain: not shown
notes: Abdominal-A (AbdA), Drosophila Hox protein, residues 261-590; also called Hox
- binding result: binds
